± gives the standard error. Variants at the floor of the assay were thinned out.
B1: glmS ribozyme (parent)
chain: AUAAAAGCGCCAGAACUACAGAAAUGUAGUUGACGAGGAGGAGGUUUAUCGAAUUUUCGGCGGAUGCCUCCAAA

Key:
Conditions in all cases: with glucosamine-6-phosphate
[1] = variants of: B1; assay: self-cleavage kobs at 40 uM GlcN6P; higher = faster cleavage; RNA array
How it was run: (§1)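 A hybridised Cy3 probe tracked barcoded ribozyme variants, transcribed in situ by E. coli RNA polymerase on sequenced MiSeq chips, at 37 °C. The variants received 40 μM to 10 mM glucosamine-6-phosphate in HEPES/KCl/Mg(OAc)2 buffer. kobs came from decay fits and kcat and KM from weighted Michaelis–Menten fits.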

[2] = variants of: B1; assay: self-cleavage kobs at 2500 uM GlcN6P; higher = faster cleavage; RNA array
How it was run: as §1

[3] = variants of: B1; assay: self-cleavage kobs at 10000 uM GlcN6P; higher = faster cleavage; RNA array
How it was run: as §1

[4] = variants of: B1; assay: self-cleavage kobs at 640 uM GlcN6P; higher = faster cleavage; RNA array
How it was run: as §1

[5] = variants of: B1; assay: self-cleavage kobs at 160 uM GlcN6P; higher = faster cleavage; RNA array
How it was run: as §1

Variant: A6G U31C U55G
- self-cleavage kobs at 40 uM GlcN6P [1]: < 1e-05 s⁻¹
- self-cleavage kobs at 2500 uM GlcN6P [2]: 4.23e-05 ± 1.7e-05 s⁻¹
- self-cleavage kobs at 10000 uM GlcN6P [3]: 5.16e-05 ± 1.9e-05 s⁻¹

Variant: A6G G41U C50G
- self-cleavage kobs at 40 uM GlcN6P [1]: < 1e-05 s⁻¹
- self-cleavage kobs at 2500 uM GlcN6P [2]: < 1e-05 s⁻¹
- self-cleavage kobs at 10000 uM GlcN6P [3]: < 1e-05 s⁻¹

Variant: G7U G41U U46A G62U
- self-cleavage kobs at 40 uM GlcN6P [1]: < 1e-05 s⁻¹
- self-cleavage kobs at 640 uM GlcN6P [4]: < 1e-05 s⁻¹
- self-cleavage kobs at 2500 uM GlcN6P [2]: < 1e-05 s⁻¹
- self-cleavage kobs at 10000 uM GlcN6P [3]: < 1e-05 s⁻¹

Variant: A6U C8G A33U C34G U69G
- self-cleavage kobs at 40 uM GlcN6P [1]: 8.53e-05 ± 1.8e-05 s⁻¹
- self-cleavage kobs at 640 uM GlcN6P [4]: 0.000181 ± 5.7e-05 s⁻¹
- self-cleavage kobs at 10000 uM GlcN6P [3]: 6.82e-05 ± 1.7e-05 s⁻¹

Variant: C8A G51U C61U
- self-cleavage kobs at 40 uM GlcN6P [1]: < 1e-05 s⁻¹
- self-cleavage kobs at 160 uM GlcN6P [5]: < 1e-05 s⁻¹
- self-cleavage kobs at 640 uM GlcN6P [4]: < 1e-05 s⁻¹
- self-cleavage kobs at 2500 uM GlcN6P [2]: < 1e-05 s⁻¹

Variant: G7A G51A C67A
- self-cleavage kobs at 40 uM GlcN6P [1]: < 1e-05 s⁻¹
- self-cleavage kobs at 10000 uM GlcN6P [3]: < 1e-05 s⁻¹

Variant: G7A C11U U30A
- self-cleavage kobs at 40 uM GlcN6P [1]: < 1e-05 s⁻¹

Variant: G7A G40A A53G G60C C68U
- self-cleavage kobs at 40 uM GlcN6P [1]: < 1e-05 s⁻¹
- self-cleavage kobs at 640 uM GlcN6P [4]: < 1e-05 s⁻¹
- self-cleavage kobs at 2500 uM GlcN6P [2]: < 1e-05 s⁻¹

Variant: C8A U47C U65A
- self-cleavage kobs at 40 uM GlcN6P [1]: < 1e-05 s⁻¹

Variant: G7U A33U A52G
- self-cleavage kobs at 40 uM GlcN6P [1]: < 1e-05 s⁻¹

Variant: G7U A15G
- self-cleavage kobs at 40 uM GlcN6P [1]: < 1e-05 s⁻¹
- self-cleavage kobs at 160 uM GlcN6P [5]: < 1e-05 s⁻¹
- self-cleavage kobs at 640 uM GlcN6P [4]: < 1e-05 s⁻¹
- self-cleavage kobs at 2500 uM GlcN6P [2]: < 1e-05 s⁻¹
- self-cleavage kobs at 10000 uM GlcN6P [3]: < 1e-05 s⁻¹

Variant: G7C U56A G60U G62A
- self-cleavage kobs at 40 uM GlcN6P [1]: < 1e-05 s⁻¹

Variant: A6G G59A A64U
- self-cleavage kobs at 40 uM GlcN6P [1]: < 1e-05 s⁻¹
- self-cleavage kobs at 640 uM GlcN6P [4]: < 1e-05 s⁻¹
- self-cleavage kobs at 10000 uM GlcN6P [3]: < 1e-05 s⁻¹

Variant: A6G U54G U57C
- self-cleavage kobs at 40 uM GlcN6P [1]: < 1e-05 s⁻¹
- self-cleavage kobs at 10000 uM GlcN6P [3]: < 1e-05 s⁻¹

Variant: C8G A12C A15G U30G G38A U46C
- self-cleavage kobs at 40 uM GlcN6P [1]: < 1e-05 s⁻¹
- self-cleavage kobs at 10000 uM GlcN6P [3]: < 1e-05 s⁻¹

Variant: A6U G41A A42U
- self-cleavage kobs at 40 uM GlcN6P [1]: < 1e-05 s⁻¹
- self-cleavage kobs at 10000 uM GlcN6P [3]: < 1e-05 s⁻¹

Variant: G7A C34G U56C
- self-cleavage kobs at 40 uM GlcN6P [1]: < 1e-05 s⁻¹

Variant: C8A A14G C58U
- self-cleavage kobs at 40 uM GlcN6P [1]: < 1e-05 s⁻¹
- self-cleavage kobs at 10000 uM GlcN6P [3]: < 1e-05 s⁻¹

Variant: C8A C10U C34G
- self-cleavage kobs at 40 uM GlcN6P [1]: < 1e-05 s⁻¹

Variant: G7A A48U U56G
- self-cleavage kobs at 40 uM GlcN6P [1]: < 1e-05 s⁻¹
- self-cleavage kobs at 160 uM GlcN6P [5]: < 1e-05 s⁻¹
- self-cleavage kobs at 640 uM GlcN6P [4]: < 1e-05 s⁻¹
- self-cleavage kobs at 10000 uM GlcN6P [3]: < 1e-05 s⁻¹

Variant: G7A U30A U45C
- self-cleavage kobs at 40 uM GlcN6P [1]: < 1e-05 s⁻¹
- self-cleavage kobs at 2500 uM GlcN6P [2]: < 1e-05 s⁻¹
- self-cleavage kobs at 10000 uM GlcN6P [3]: < 1e-05 s⁻¹

Variant: G7U A33C
- self-cleavage kobs at 40 uM GlcN6P [1]: < 1e-05 s⁻¹
- self-cleavage kobs at 160 uM GlcN6P [5]: < 1e-05 s⁻¹
- self-cleavage kobs at 640 uM GlcN6P [4]: < 1e-05 s⁻¹
- self-cleavage kobs at 2500 uM GlcN6P [2]: < 1e-05 s⁻¹
- self-cleavage kobs at 10000 uM GlcN6P [3]: < 1e-05 s⁻¹

Variant: G7A A52U A64G C71A
- self-cleavage kobs at 40 uM GlcN6P [1]: < 1e-05 s⁻¹
- self-cleavage kobs at 160 uM GlcN6P [5]: < 1e-05 s⁻¹
- self-cleavage kobs at 640 uM GlcN6P [4]: < 1e-05 s⁻¹
- self-cleavage kobs at 2500 uM GlcN6P [2]: < 1e-05 s⁻¹

Variant: G7C A12U G38U G40C U49G U56G
- self-cleavage kobs at 40 uM GlcN6P [1]: < 1e-05 s⁻¹

Variant: A6G G32C C34G C71U
- self-cleavage kobs at 40 uM GlcN6P [1]: < 1e-05 s⁻¹
- self-cleavage kobs at 160 uM GlcN6P [5]: < 1e-05 s⁻¹
- self-cleavage kobs at 640 uM GlcN6P [4]: < 1e-05 s⁻¹

Variant: G7C C10U A15U U49C
- self-cleavage kobs at 40 uM GlcN6P [1]: < 1e-05 s⁻¹
- self-cleavage kobs at 10000 uM GlcN6P [3]: < 1e-05 s⁻¹

Variant: A6U C10A G38U
- self-cleavage kobs at 40 uM GlcN6P [1]: < 1e-05 s⁻¹
- self-cleavage kobs at 10000 uM GlcN6P [3]: < 1e-05 s⁻¹

Variant: C8A G9U
- self-cleavage kobs at 40 uM GlcN6P [1]: < 1e-05 s⁻¹
- self-cleavage kobs at 160 uM GlcN6P [5]: < 1e-05 s⁻¹
- self-cleavage kobs at 640 uM GlcN6P [4]: < 1e-05 s⁻¹
- self-cleavage kobs at 2500 uM GlcN6P [2]: < 1e-05 s⁻¹
- self-cleavage kobs at 10000 uM GlcN6P [3]: < 1e-05 s⁻¹

Variant: G7U A42G U49G C70G
- self-cleavage kobs at 40 uM GlcN6P [1]: < 1e-05 s⁻¹

Variant: A6U C11U G13A
- self-cleavage kobs at 40 uM GlcN6P [1]: < 1e-05 s⁻¹
- self-cleavage kobs at 10000 uM GlcN6P [3]: < 1e-05 s⁻¹

Variant: A6U C16U U47A G63U
- self-cleavage kobs at 40 uM GlcN6P [1]: < 1e-05 s⁻¹
- self-cleavage kobs at 10000 uM GlcN6P [3]: < 1e-05 s⁻¹

Variant: G7U C19A A36G A39C
- self-cleavage kobs at 40 uM GlcN6P [1]: < 1e-05 s⁻¹
- self-cleavage kobs at 10000 uM GlcN6P [3]: < 1e-05 s⁻¹

Variant: A6G G38U A39G G51A C68G C70U
- self-cleavage kobs at 40 uM GlcN6P [1]: 7.83e-05 ± 3.2e-05 s⁻¹

Variant: A6U A12U G43A U47G
- self-cleavage kobs at 40 uM GlcN6P [1]: < 1e-05 s⁻¹

Variant: G7C G40C U54G G62A
- self-cleavage kobs at 40 uM GlcN6P [1]: < 1e-05 s⁻¹

Variant: G7C U49G
- self-cleavage kobs at 40 uM GlcN6P [1]: < 1e-05 s⁻¹
- self-cleavage kobs at 160 uM GlcN6P [5]: < 1e-05 s⁻¹

Variant: G7A C58U C68G
- self-cleavage kobs at 40 uM GlcN6P [1]: 0.000285 ± 7.7e-05 s⁻¹

Variant: G7U U65C
- self-cleavage kobs at 40 uM GlcN6P [1]: < 1e-05 s⁻¹
- self-cleavage kobs at 160 uM GlcN6P [5]: < 1e-05 s⁻¹
- self-cleavage kobs at 640 uM GlcN6P [4]: < 1e-05 s⁻¹
- self-cleavage kobs at 2500 uM GlcN6P [2]: < 1e-05 s⁻¹
- self-cleavage kobs at 10000 uM GlcN6P [3]: < 1e-05 s⁻¹

Variant: G7A U69G
- self-cleavage kobs at 40 uM GlcN6P [1]: 0.000261 ± 4.3e-05 s⁻¹
- self-cleavage kobs at 640 uM GlcN6P [4]: 7.58e-05 ± 3.5e-05 s⁻¹
- self-cleavage kobs at 10000 uM GlcN6P [3]: 0.000569 ± 0.00011 s⁻¹

Variant: C8A A15G U54A
- self-cleavage kobs at 40 uM GlcN6P [1]: < 1e-05 s⁻¹
- self-cleavage kobs at 10000 uM GlcN6P [3]: < 1e-05 s⁻¹

Variant: C8A A53G G63A
- self-cleavage kobs at 40 uM GlcN6P [1]: < 1e-05 s⁻¹
- self-cleavage kobs at 640 uM GlcN6P [4]: < 1e-05 s⁻¹

Variant: C8A G40U
- self-cleavage kobs at 40 uM GlcN6P [1]: < 1e-05 s⁻¹
- self-cleavage kobs at 160 uM GlcN6P [5]: < 1e-05 s⁻¹
- self-cleavage kobs at 640 uM GlcN6P [4]: < 1e-05 s⁻¹
- self-cleavage kobs at 2500 uM GlcN6P [2]: < 1e-05 s⁻¹
- self-cleavage kobs at 10000 uM GlcN6P [3]: < 1e-05 s⁻¹

Variant: G7C G38U C70G
- self-cleavage kobs at 40 uM GlcN6P [1]: < 1e-05 s⁻¹

Variant: G7U C34A
- self-cleavage kobs at 40 uM GlcN6P [1]: < 1e-05 s⁻¹
- self-cleavage kobs at 160 uM GlcN6P [5]: < 1e-05 s⁻¹
- self-cleavage kobs at 640 uM GlcN6P [4]: < 1e-05 s⁻¹
- self-cleavage kobs at 10000 uM GlcN6P [3]: < 1e-05 s⁻¹

Variant: G7U A14U
- self-cleavage kobs at 40 uM GlcN6P [1]: < 1e-05 s⁻¹
- self-cleavage kobs at 160 uM GlcN6P [5]: < 1e-05 s⁻¹
- self-cleavage kobs at 640 uM GlcN6P [4]: < 1e-05 s⁻¹
- self-cleavage kobs at 10000 uM GlcN6P [3]: < 1e-05 s⁻¹

Variant: G7U A14G
- self-cleavage kobs at 40 uM GlcN6P [1]: < 1e-05 s⁻¹
- self-cleavage kobs at 160 uM GlcN6P [5]: < 1e-05 s⁻¹
- self-cleavage kobs at 640 uM GlcN6P [4]: < 1e-05 s⁻¹
- self-cleavage kobs at 10000 uM GlcN6P [3]: < 1e-05 s⁻¹

Variant: C8A G62U
- self-cleavage kobs at 40 uM GlcN6P [1]: < 1e-05 s⁻¹
- self-cleavage kobs at 160 uM GlcN6P [5]: < 1e-05 s⁻¹
- self-cleavage kobs at 10000 uM GlcN6P [3]: 5.53e-05 ± 1.6e-05 s⁻¹

Variant: A6G G32A U49G U55A
- self-cleavage kobs at 40 uM GlcN6P [1]: < 1e-05 s⁻¹
- self-cleavage kobs at 10000 uM GlcN6P [3]: < 1e-05 s⁻¹

Variant: G7C C71G
- self-cleavage kobs at 40 uM GlcN6P [1]: < 1e-05 s⁻¹
- self-cleavage kobs at 2500 uM GlcN6P [2]: < 1e-05 s⁻¹
- self-cleavage kobs at 10000 uM GlcN6P [3]: < 1e-05 s⁻¹

Variant: A6G G51U U65A
- self-cleavage kobs at 40 uM GlcN6P [1]: < 1e-05 s⁻¹
- self-cleavage kobs at 10000 uM GlcN6P [3]: < 1e-05 s⁻¹

Variant: G7U C10G C68G
- self-cleavage kobs at 40 uM GlcN6P [1]: 0.000171 ± 5.8e-05 s⁻¹
- self-cleavage kobs at 10000 uM GlcN6P [3]: 5.21e-05 ± 1.6e-05 s⁻¹

Variant: C8A C68A
- self-cleavage kobs at 40 uM GlcN6P [1]: < 1e-05 s⁻¹
- self-cleavage kobs at 160 uM GlcN6P [5]: < 1e-05 s⁻¹
- self-cleavage kobs at 640 uM GlcN6P [4]: < 1e-05 s⁻¹
- self-cleavage kobs at 2500 uM GlcN6P [2]: < 1e-05 s⁻¹

— the supplement of paper PMC7125110
